Measured values from patent publication EP2644619A1 (Spiber Technologies AB, dated 2013).

Legend:
[1] = target: NT (wild type N-terminal fragment of Euprosthenops australis major spidroin 1) (Euprosthenops australis); assay: tryptophan fluorescence, 5 uM protein, between pH 7 and pH 6; the filing uses it as a probe of dimerisation
[2] = target: the molecule itself; assay: comparative structural studies, pH lowered from 7 to 6 (self-association)

Row | Binder | red-shift in fluorescence emission [1] | binding result [2]
1 | NT (wild type N-terminal fragment of Euprosthenops australis major spidroin 1) (protein) GSGNSHTTPWTNPGLAENFMNSFMQGLSSMPGFTASQLDDMSTIAQSMVQSIQSLAAQGRTSPNKLQALNMAFASSMAEIAASEEGGGSLSTKTSSIASAMSNAFLQTTGVVNQPFINEITQLVSMFAQAGMNDVSA | 15 nm | –
2 | NT^A72R (other, also called mutated NT; mutant NT) GSGNSHTTPWTNPGLAENFMNSFMQGLSSMPGFTASQLDDMSTIAQSMVQSIQSLAAQGRTSPNKLQALNMRFASSMAEIAASEEGGGSLSTKTSSIASAMSNAFLQTTGVVNQPFINEITQLVSMFAQAGMNDVSA | – | no binding
